The assay deals with integrin molecules on human cells. In words: cell-based or functional assay.

B1: RGD-Hoc (SEQ ID NO: 19), P18056 1-376 (protein)
chain: CDCRGDCFCSAMTFTVDITPKTPTGVIDETKQFTATPSGQTGGGTITYAWSVDNVPQDGAEATFSYVLKGPAGQKTIKVVATNTLSEGGPETAEATTTITVKNKTQTTTLAVTPASPAAGVIGTPVQFTAALASQPDGASATYQWYVDDSQVGGETNSTFSYTPTTSGVKRIKCVAQVTATDYDALSVTSNEVSLTVNKKTMNPQVTLTPPSINVQQDASATFTANVTGAPEEAQITYSWKKDSSPVEGSTNVYTVDTSSVGSQTIEVTATVTAADYNPVTVTKTGNVTVTAKVAPEPEGELPYVHPLPHRSSAYIWCGWWVMDEIQKMTEEGKDWKTDDPDSKYYLHRYTLQKMMKDYPEVDVQESRNGYIIHKTALETGIIYTYPKLAAALEHHHHHH
On to B1, for which the luciferase activity was determined as 5 fold.

For the origin of these results see patent EP4371564A2.
